Tested on: Oc1ccc2ccc3cccc4ccc1c2c34
Experiment: purified protein, by the assay type
Conditions: saturating PAPS (500 μM), 25.0 °C
Procedure: Covalent Tagging of SULT1A3 Cys Constructs. Labeling of the SULT1A3 Cys constructs was performed as described previously (17,18,21). Briefly, 3-maleimido-PROXYL (spin label) or N-cyclohexylmaleimide (diamagnetic control) was added to an enzyme containing solution at 20-fold excess over reactive Cys. Unreacted Cys was monitored using DNTB (17,18,21); reactions were considered complete when >98% of the Cys was labeled. Reaction conditions: SULT1A3 (50 μM, monomer), 3-maleimido-PROXYL or N-cyclohexylmaleimide (1.0 mM), PAP (0.50 mM), KPO4 (50 mM), pH 7.5, 4±2° C. To prepare samples for NMR, reaction mixtures were dialyzed three times against 40 volumes of PAP (0.50 mM), KPO4 (50 mM), pD 7.4, D2O (>95%), 4±2° C.
Initial-Rate Studies. Initial-rate parameters for the labeled or mutant SULT1A3 constructs were determined using a previously described 1-HP assay (25). […] Reactions were monitored via fluorescence change associated with the conversion of 1-HP to 1-HP-S (λex=325 nm, λem=370 nm). Keq for the 1-HP sulfonation reaction is −250. Given the reaction conditions outlined above, ≥99% of 1-HP is converted to 1-HP-S, and ˜0.4% of PAPS is converted to PAP at equilibrium. […] Reaction progress curves were analyzed to obtain initial-rate parameters as described previously (26,27).
Inhibition studies. Inhibition parameters were determined under conditions identical to those described above (see, Initial-Rate Studies) except that [1-HP] was increased to 5.0 μM (˜61×Km) and inhibitor concentration was varied between 0.20-20×Ki. Ki was obtained using a least-squares fit to the following partial inhibition equation (25,28): v=kcat·(Ki+(1/kcat inh)·[I])/(Ki+[I]), where kcat inh is enzyme turnover at saturating substrates and allosteric inhibitor.

SULT1A3 spin-labeled at Cys 116 (Homo sapiens; Q116C)
Km (other: spin label at Cys 116): 87 (3) nM | kcat (other: spin label at Cys 116): 1.83 s⁻¹

SULT1A3 spin-labeled at Cys 198 (Homo sapiens; E198C)
Km (other: spin label at Cys 198): 88 (2) nM | kcat (other: spin label at Cys 198): 1.8 s⁻¹

SULT1A3 spin-labeled at Cys 234 (Homo sapiens; K234C)
Km (other: spin label at Cys 234): 84 (3) nM | kcat (other: spin label at Cys 234): 1.82 s⁻¹
